Several values for one entry are separate records, joined by “and”; a condition that tells them apart may be missing. Equal values may be shown once.
How the values were obtained:
[1] = test system: C6 plasma membrane associated metalloendoprotease; assay: Enzyme assay: cbz-FAF[125I]Y-NH2 degradation by C6 plasma membranes with protease blockers; assay type: biochemical, rat
Procedure: For most experiments, 70-80% confluent cell layers (1 cm^2 wells, 100 μl MEMα) or 2-5 μg C6 plasma membrane (100 μl MEMα) were used. […] If indicated, cell layers or plasma membrane suspensions were preincubated for 30 min with protease blockers or peptides. NEM or iodacetamide incubations of plasma membranes were performed at pH 8.5. The incubation was stopped by loading a 10 μl aliquot of the incubation medium on a thin layer chromatography plate (10 cm height, Kieselgel 60 F254, MERCK, Germany) and air dried. […] Plates were then air dried and exposed on Kodak X-OMAT films (NY, USA) with an intensifying screen. To identify the degradation products on thin-layer chromatography, we run reference peptides under the same conditions.
(§1) For the quantification of the activity, the reaction was stopped by addition of an equal volume of chloroform. […] Activity is expressed as % radioactivity contained in the aqueous phase. 100% is the sum of the radioactivity of both phases.

[2] = test system: C6 cells; assay: C6 cell spreading on CNS myelin or PLYS with protease inhibitors; assay type: cell-based, rat; settings: C6 cells; spreading on PLYS minus spreading on CNS myelin
Procedure: Rat C6, mouse NIH 3T3 and B16 cells were cultured in Dulbecco's modified Eagle's medium (DMEM) supplemented with 10% fetal calf serum (FCS), usually to maximally 70-80% confluency. Cells were harvested with a short trypsin treatment (0.1% in Ca^2+/Mg^2+-free Hank's medium for 90 seconds) stopped by addition of FCS in excess, collected by centrifugation. Cells were resuspended in either DMEM/FCS or defined serum-free medium (MEM) and used for experiments. […]
Myelin from rat spinal cord (CNS) or sciatic nerve (PNS) purified on a discontinuous sucrose gradient as described in Section 6.1.5., was dried overnight onto PLYS coated wells (20 μg protein/well of 100 mm^2 surface). […] Experiments were scored at different time points using a phase contrast microscope equipped with a photocamera. Quantifications were done using a surface integration program; three arbitrary fields were photographed for each well at a magnitude of 80×, at least 25 cells per picture were measured. […] Results are expressed as μ^2 of projected cell surface, or as degree, which was calculated by subtracting from the projected surface value of a spreading cell, the surface value of a completely spheric cell.

[3] = test system: cbz-FAF[^125I]Y-NH2; assay: Degradation of cbz-FAF[125I]Y-NH2 by defined proteases and C6 cell fractions; assay type: biochemical; settings: 37° C., pH 7.4
Procedure: Preparation of plasma membrane from C6 cells was performed according to (Raper and Kapfhammer, 1990, Neuron 2:21-29) with some modifications. Briefly, C6 cells were cultured in 30 culture dishes (13.5 cm diameter). At confluency, the culture medium was removed and the cell layers were frozen to −20° C. All subsequent manipulations were performed at 4° C.: cell debris were collected using a rubber policeman in 100 ml CMF-Hank's and further homogenized by 10 strokes in a Dounce homogenizer with teflon plunger. A small aliquot of this suspension was stored at −20° C. and used later (homogenate-fraction). The nuclear pellet was obtained by low speed centrifugation (10 min, 1000×g) in a Sorvall S22 rotor and stored at […] A crude vesicular fraction was obtained by centrifugating the nuclear supernatant in a Sorvall S22 rotor (20,000×g, 30 min), and was resuspended in 10 ml CMF-Hank's. After adding 20 ml 2.25 M sucrose in CMF-Hank's, this suspension was loaded on 4×8 ml 2.25 M sucrose in CMF-Hank's and centrifuged at 80,000×g for 1 h in a Beckman SW28 motor. […]
as §1

Molecule	Amount necessary to degrade 50% of substrate in 30 min [3]	also measured
soybean trypsin inhibitor: serine protease blocker (protein, UniProt P01070 25-205, looked up) Trypsin inhibitor A: DFVLDNEGNPLENGGTYYILSDITAFGGIRAAPTGNERCPLTVVQSRNELDKGIGTIISSPYRIRFIAEGHPLSLKFDSFAVIMLCVGIPTEWSVVEDLPEGPAVKIGENKDAMDGWFRLERVSDDEFNNYKLVFCPQQAEDDKCGDIGISIDHDDGTRRLVVSKNKPLVVQFQKLDKESL		Effect on cbz-FAF[^125I]Y-NH2 degradation by C6 plasma membranes, in words [1]: had no effect
2-macroglobulin: general protease inhibitor (protein, UniProt P01023 24-1474, looked up) Alpha-2-macroglobulin: SVSGKPQYMVLVPSLLHTETTEKGCVLLSYLNETVTVSASLESVRGNRSLFTDLEAENDVLHCVAFAVPKSSSNEEVMFLTVQVKGPTQEFKKRTTVMVKNEDSLVFVQTDKSIYKPGQTVKFRVVSMDENFHPLNELIPLVYIQDPKGNRIAQWQSFQLEGGLKQFSFPLSSEPFQGSYKVVVQKKSGGRTEHPFTVEEFVLPKFEVQVTVPKIITILEEEMNVSVCGLYTYGKPVPGHVTVSICRKYSDASDCHGEDSQAFCEKFSGQLNSHGCFYQQVKTKVFQLKRKEYEMKLHTEAQIQEEGTVVELTGRQSSEITRTITKLSFVKVDSHFRQGIPFFGQVRLVDGKGVPIPNKVIFIRGNEANYYSNATTDEHGLVQFSINTTNVMGTSLTVRVNYKDRSPCYGYQWVSEEHEEAHHTAYLVFSPSKSFVHLEPMSHELPCGHTQTVQAHYILNGGTLLGLKKLSFYYLIMAKGGIVRTGTHGLLVKQEDMKGHFSISIPVKSDIAPVARLLIYAVLPTGDVIGDSAKYDVENCLANKVDLSFSPSQSLPASHAHLRVTAAPQSVCALRAVDQSVLLMKPDAELSASSVYNLLPEKDLTGFPGPLNDQDNEDCINRHNVYINGITYTPVSSTNEKDMYSFLEDMGLKAFTNSKIRKPKMCPQLQQYEMHGPEGLRVGFYESDVMGRGHARLVHVEEPHTETVRKYFPETWIWDLVVVNSAGVAEVGVTVPDTITEWKAGAFCLSEDAGLGISSTASLRAFQPFFVELTMPYSVIRGEAFTLKATVLNYLPKCIRVSVQLEASPAFLAVPVEKEQAPHCICANGRQTVSWAVTPKSLGNVNFTVSAEALESQELCGTEVPSVPEHGRKDTVIKPLLVEPEGLEKETTFNSLLCPSGGEVSEELSLKLPPNVVEESARASVSVLGDILGSAMQNTQNLLQMPYGCGEQNMVLFAPNIYVLDYLNETQQLTPEIKSKAIGYLNTGYQRQLNYKHYDGSYSTFGERYGRNQGNTWLTAFVLKTFAQARAYIFIDEAHITQALIWLSQRQKDNGCFRSSGSLLNNAIKGGVEDEVTLSAYITIALLEIPLTVTHPVVRNALFCLESAWKTAQEGDHGSHVYTKALLAYAFALAGNQDKRKEVLKSLNEEAVKKDNSVHWERPQKPKAPVGHFYEPQAPSAEVEMTSYVLLAYLTAQPAPTSEDLTSATNIVKWITKQQNAQGGFSSTQDTVVALHALSKYGAATFTRTGKAAQVTIQSSGTFSSKFQVDNNNRLLLQQVSLPELPGEYSMKVTGEGCVYLQTSLKYNILPEKEEFPFALGVQTLPQTCDEPKAHTSFQISLSVSYTGSRSASNMAIVDVKMVSGFIPLKPTVKMLERSNHVSRTEVSSNHVLIYLDKVSNQTLSLFFTVLQDVPVRDLKPAIVKVYDYYETDEFAIAEYNAPCSKDLGNA		Inhibition on CNS (%) [2]: 18%
tPA: tissue-type plasminogen activator (protein, UniProt P00750 36-562, looked up) Tissue-type plasminogen …: SYQVICRDEKTQMIYQQHQSWLRPVLRSNRVEYCWCNSGRAQCHSVPVKSCSEPRCFNGGTCQQALYFSDFVCQCPEGFAGKCCEIDTRATCYEDQGISYRGTWSTAESGAECTNWNSSALAQKPYSGRRPDAIRLGLGNHNYCRNPDRDSKPWCYVFKAGKYSSEFCSTPACSEGNSDCYFGNGSAYRGTHSLTESGASCLPWNSMILIGKVYTAQNPSAQALGLGKHNYCRNPDGDAKPWCHVLKNRRLTWEYCDVPSCSTCGLRQYSQPQFRIKGGLFADIASHPWQAAIFAKHRRSPGERFLCGGILISSCWILSAAHCFQERFPPHHLTVILGRTYRVVPGEEEQKFEVEKYIVHKEFDDDTYDNDIALLQLKSDSSRCAQESSVVRTVCLPPADLQLPDWTECELSGYGKHEALSPFYSERLKEAHVRLYPSSRCTSQHLLNRTVTDNMLCAGDTRSGGPQANLHDACQGDSGGPLVCLNDGRMTLVGIISWGLGCGQKDVPGVYTKVTNYLDWIRDNMRP	>100 µg	
papain: cysteine protease (protein, UniProt P00784 134-345, looked up) Papain: IPEYVDWRQKGAVTPVKNQGSCGSCWAFSAVVTIEGIIKIRTGNLNEYSEQELLDCDRRSYGCNGGYPWSALQLVAQYGIHYRNTYPYEGVQRYCRSREKGPYAAKTDGVRQVQPYNEGALLYSIANQPVSVVLEAAGKDFQLYRGGIFVGPCGNKVDHAVAAVGYGPNYILIKNSWGTGWGENGYIRIKRGTGNSYGVCGLYTSSFYPVKN	2 µg and 2.0 µg	

From patent US6960559B1, “Neurite growth regulatory factors” (University of Zurich, priority 1988, dated 2005)
